Experimental data published in US5753621A, “Pulmonary surfactant protein fragments” (Abbott Laboratories, priority 1995, dated 1998).

Legend:
Format in all cases: physicochemical
[1] = Relative surface activity by dilution studies on the modified Wilhelmy Balance-Langmuir Trough; settings: 675 ug phospholipid; for Mean Minimum Surface Tension, relative peptide concentration 1/2: 1/2 dilution of equimolar stock with lipid mixture; for Mean Minimum Surface Tension, relative peptide concentration 1/4: 1/4 dilution of equimolar stock with lipid mixture; for Mean Minimum Surface Tension, relative peptide concentration 1/8: 1/8 dilution of equimolar stock with lipid mixture; for Mean Minimum Surface Tension, relative peptide concentration Equimolar: equimolar to 0.5 mg/mL SP-B(53-78); for Mean Minimum Surface Tension, relative peptide concentration Equimolar / Mean Minimum Surface Tension, relative peptide concentration 2%: 445 sq. cm trough; for Mean Minimum Surface Tension, relative peptide concentration 2%: peptide 2% of solids (0.5 mg/ml)
Procedure: For the purpose of this comparison "surface activity" is defined as follows: For any given peptide concentration, the admixture is required to result in a minimum dynamic surface tension of less than 10 dynes/cm for each of seven consecutive expansion/compression cycles.
Initially each of the admixtures was formulated so as to contain an equal number of moles of the individual peptide as is contained in a 0.5 mg/mL admixture of SP-B(53-78). […] Thereafter, each of these admixtures was diluted with the standard lipid mixture as described in Example 4, so as to provide doubling dilutions of the equimolar "parent" stock peptide admixture. The lipid concentration in all cases was maintained at 25 mg/ml.
Assessment of relative surface activity was conducted on the modified Wilhemy-Langmuir Surface Balance. For these studies a standard volume of 27 ul of each admixture, corresponding to a total phospholipid mass of 675 ug, was applied to the Langmuir Trough with maximum dimensions of 445 sq. cm.

[2] = Dynamic surface tension versus compressed surface area, modified Wilhelmy Surface Balance (Langmuir Trough); settings: peptide 0.5 mg/ml (~2% of solids) in DPPC:PG:PA 68:22:9; 675 ug phospholipid on 445 sq. cm trough; recorded during seven complete cycles
Procedure: (§1) Prior to testing for surface activity, the synthetic fragments were admixed with lipids. A lipid mixture consisting of 68% 1,2-dipalmitoyl-sn-phosphatidylcholine (DPPC), 22% egg phosphatidylglycerol (PG) and 9% palmitic acid on a weight basis was prepared by dissolving the lipids in chloroform:methanol (2:1). The required amount of peptide fragment was dissolved in methanol and heated to 60° C. for 10 minutes. The peptide solution was then added to the lipid mixture prewarmed to 45° C. for ten minutes. The samples were mixed at 45° C. by gentle swirling at 100 revolutions per minute on a Buchi rotary evaporator. The organic solvents were then evaporated at 45° C. by increasing the vacuum in 100 torr increments every five minutes until most of the solvent was removed. Final vacuum was between 150-200 torr. Following evaporation, the solids were then suspended in 10% ethanol prewarmed to 45° C. and which was prepared using deionized distilled water. The suspension was gently mixed with vortexing and placed back under vacuum at 600 torr with a repeat of the vacuum ramping process. Final vacuum for the ethanol removal was 50 torr. Following complete removal of ethanol the suspension was diluted with aqueous 0.15M NaCl at 45° C. to yield an admixture with a phospholipid concentration of 25 mg/ml. The peptide/lipid admixtures were formed at final peptide concentrations of 0.5 mg/ml (equivalent to 2% of solids concentration).
The dynamic surface tension lowering properties of the peptide/lipid admixtures were studied using a modified Wilhelmy Surface Balance (Langmuir Trough). The instrument consists of an all Teflon trough and movable Teflon ribbon (dam) barrier system which completely contains and defines a variable surface area. Surface area was varied through the use of a constant rate reversible 3-phase motor to drive the Teflon barrier. A Cahn 2000 electrobalance (Cahn Instruments, Cerittos, Calif.) with a sandblasted 1 cm platinum plate and stainless steel hangdown wire was employed to determine the surface tension at the liquid-air interface. The entire apparatus was situated in a thermostated incubator set at 45° C. Surface area-surface tension measurements were made by adding 950 ml of 0.15M NaCl to the trough. Subphase temperature was controlled during the measurements at 36°-38° C.
For each experiment 27 ul of peptide/lipid admixture was applied in a random array of 13 droplets to the surface of the temperature controlled subphase and allowed to spread spontaneously for 3 minutes. (The 27 ul application corresponds to 675 ug of phospholipid). The trough surface area was then cycled from a maximum (445 sq. cm) to a minimum (178 sq. cm) surface area and back to maximum at a cycling rate of 3 cycles/min (compression ratio 2.5:1). The dynamic surface tension versus surface area was recorded for 7 complete compression-expansion cycles for each application.

[3] = Pulsating Bubble Surfactometer (PBS) surface tension; settings: after 5 minutes pulsation (100 cycles); 1 mg/ml phospholipid, peptide 2% of phospholipids; 0.15M NaCl; 37° C.; 20 cycles/minute; SD in parenthesis
Procedure: as §1
The PBS equipment (Electronetics, Buffalo, N.Y.) used was essentially equivalent to that described in detail by G. Enhorning, J. Appld. Physiol. 43, 198-203, (1977). Recordings were made of the pressure gradient across the wall of a small air bubble, communicating with ambient air by means of a narrow chimney stack, but otherwise entirely surrounded by a 40 ul volume of the peptide/lipid admixture. The admixture concentration employed for these studies was 1 mg/ml total phospholipid (0.02 mg/ml total peptide) and the diluent was 0.15M NaCl.
Immediately prior to loading the sample chamber, the diluted samples were sonicated for 15 seconds to remove any gas nuclei.
The pressure drop across the air-water interface was measured during pulsation by a pressure transducer, and the corresponding surface tension was determined at minimum and maximum bubble size through the application of Young's law and the Laplace equation. Measurements were all made at 37° C. and the bubble pulsed at 20 cycles/minute to render respectively a maximum (1.1 mm) and a minimum (0.8 mm) bubble diameter. (This compression/expansion corresponds to a 50% change in the surface area of the air-water interface).

[4] = Adsorption capacity, modified Wilhelmy surface balance; settings: measured after three (3) minutes spreading time; peptide 0.5 mg/ml (~2% of solids)
Procedure: as §1
A procedure similar to that described by Notter, et al., Pediatric Res. 16, 515-519 (1982) was employed to determine the absorption rate in the absence of diffusion resistance. The modified Wilhelmy surface balance as described above was used. However, instead of using a Langmuir trough, a round Teflon dish (5.1 cm diameter) was employed. The subphase, 70 ml of 0.15M NaCl, was allowed to equilibrate to 37° C. in the incubator and was continuously stirred with a Teflon coated magnetic stirrer. An aliquot of the peptide/lipid fragment admixture containing 5 mg of total phospholipid was dispersed in 10 ml of 0.15M NaCl by vortexing for 10 seconds. This dispersion was then added to the saline subphase. Surface tension lowering was monitored using a strip chart recorder connected to the electro-balance output.

Molecule | Mean Minimum Surface Tension, relative peptide concentration 1/2 [1] [mN/m] | Mean Minimum Surface Tension, relative peptide concentration 1/4 [1] [mN/m] | Mean Minimum Surface Tension, relative peptide concentration 1/8 [1] [mN/m] | Mean Minimum Surface Tension, relative peptide concentration 1/16 ([1]; 1/16 dilution of equimolar stock with lipid mixture) [mN/m] | Mean Minimum Surface Tension, relative peptide concentration Equimolar [1] [mN/m] | Mean Minimum Surface Tension, relative peptide concentration 2% [1] [mN/m] | Surface Tension Maximum [2] [dynes/cm] | Surface Tension Minimum [2] [dynes/cm] | Surface tension Maximum (maximum bubble size) [3] | Surface tension Minimum (minimum bubble size) [3] | Adsorption (equilibrium adsorption surface tension) [4] [dynes/cm]
SP-B(66-78)diLys: SP-B positions 66-78, cysteines 71 and 77 replaced with lysine (LPQLVKRLVLRKS; Pulmonary surfactant-associated protein B; UniProt P07988 266-278, looked up, variant C71K C77K) | 8.2 | 7.0 | 15.0 | 23.0 | 2.5 | 2.6 | 56.5 | 2.6 | 55.1 (6.6) dyne/cm | 1.8 (0.5) dyne/cm | 48.9
SP-B(69-78): synthesized SP-B peptide fragment, positions 69-78, 10 amino acids (LVCRLVLRCS; Pulmonary surfactant-associated protein B; UniProt P07988 269-278, looked up, fragment) | 12.5 | 13.8 | 12.2 |  | 13.3 | 6.3 | 65.0 | 6.3 | 64.0 (5.0) dyne/cm | 27.3 (0.5) dyne/cm | 56.5
SP-B(1-78): complete SP-B surfactant protein having 78 amino acid residues, used as control (protein, UniProt P07988 201-279, looked up, Pulmonary surfactant-associated protein B, complete SP-B surfactant protein having 78 amino acid residues, used as control) Pulmonary …: FPIPLPYCWLCRALIKRIQAMIPKGALAVAVAQVCRVVPLVAGGICQCLAERYSVILLDTLLGRMLPQLVCRLVLRCSM | 1.5 | 4.5 | 21.5 |  | 1.5 | 1.6 | 44.0 | 0.3 | 50.6 (1.7) dyne/cm | 4.7 (0.3) dyne/cm | 37.5
